Assay results from the DeepSol protein solubility set.

Assay: soluble on expression in E. coli; label from the status in PepcDB or PDB records

Row | Sequence | soluble on expression in E. coli
1 | MKIAIIGAGIGGLTAAALLQEQGHTIKVFEKNESVKEIGAGIGIGDNVLKKLGNHDLAKGIKNAGQILSTMTVLDDKDRLLTTVKLKSNTLNVTLPRQTLIDIIKSYVKDDVIFTNHEVTHIDNETDKVTIHFAEQESEAFDLCIGADGIHSKVRQSVNADSKVLYQGYTCFRGLIDDIDLKHPDCAKEYWGRKGRVGIVPLLNNQAYWFITINSKENNHKYSSFGKPHLQAYFNHYPNEVREILDKQSETGILLHNIYDLKPLKSFVYGRTILLGDAAHATTPNMGQGAGQAMEDAIVLVNCFNAYDFEKALQRYDKIRVKHTAKVIKRSRKIGKIAQYRSRLFVAVRNRIMKMMPNALAAGQTKFLYKSKEKLEHHHHHH | soluble
2 | MKIAIIGYSGSGKSTLANFLGQHYNCEVLHLDKIHFTSNWQERTVDEMTDDISTFMLQSDWIIEGNYSACLYEERMREADCIVYFNFNRVNCLYRAFRRYLTYRGKTRPSMAEG | not soluble
3 | MKIALINENSQAAKNGIIYDALTTVTDKHGYQVFNYGMYGTEGESQLTYVQNGLLASILLTTKAADFVVTGCGTGVGAMLALNSFPGVTCGFASEPTEAYLFSQINGGNALSIPFAKGFGWGAELNLTLIFERLFAEPMGGGYPKERAIPEQRNARILSDLKKITYRDLLAIVKDIDQDFLKETISGAHFQEYFFANAEPSELVTYLKSVLEQ | not soluble
4 | MKIAVLGASGWIGGTILNEALSRGHEVVALVRDPSKLGETAAEVRSVDLAKPLTADTFAGVDVLIASVGGRADLNHSLVAKTVNNLLALLPLAKVPRLLWVGGAGSLEVAPGVTLVSSPDFPPAYKDEALAQGEALKAFRAANTAVNWTFVSPAAEIYPGESEGLYRLGGDSFFTDAKGRSRISVTDYAKAMLDEAEKGAHPNQRISVAYLEHHHHHH | soluble
5 | MKIGFIGTGSMGTILIESFLESSALTAEQIVITNRTQEKADALARRYPGLSVVDRPEEVVQQTDCFFVCVKPMQFHRVLMDIRPHCSANKLLVSITSPISIAQLENSVDCKVARAIPSILNRACAGSTLVSFSERCLEEDRSFLCGLLGTISEPLLIEEKITRVSSDIVSCGPAFFSYLTQRFIEAAVRQTAISEEDATALATEMLIGIGKLLDQELYTLPSLQKRVCVPGGITGEGIRVLEEDVGHMFDRLFQKTHQKYYHEQEKISSQLTLKGMAGDPNSLEHHHHHH | not soluble
6 | MKIGIVIPAHNEEQHLSACLQSIQQAIQHTGHEQVEILVVLDSCTDQSRSVVESHQVNWIECNFACVGKARDLGIRQLIDQGVIWVACTDADTIVDSDWILCQMLHQPTDAICGVVTLDDLSHLSVQQQQKYLAHYQDSMDHQHIHGANLSFSAEAYIQAGGFEPIPCHEDVSLIEKFIKQCCKVTRSNLEHHHHHH | not soluble
7 | MKIKEVRITGFRSYKDNTNVSGFSPRSNVVVGRNGSGKSNFFHAIQFVLSDEYAHLKEEQRLGLLHESTGPKVAHARVEITFDNSEKRLMAFENSEVKIVRQVGKKKDQYYIDNKMVPRAEVVNLMESAGFSRSNPYYIVKQGKINELATSPDAYKLKLLREVAGTRVYDERKEESLKILKETKMKTEKIQGLLKYIDERLQTLENEKEDLKEYQKLDKTKRSVEYTMYDNTNKEAIKEKTKLDEQKVELNQKDNNVKSQLNDVIAEMAKLKTDKKKLESLGRGLREDKETLQAEETKMVEEKMTLKLEIDSLNEENTRERQGRQNAEHSLQGVGDEIFKNEEELDTIKPEYAKLLEEESRLKTDIRIDESRAKEILAKQGQRSQFSSVDDRDKFLRNEIRRISGLIADNKEREETIQKELADVEREDEKLNNEIQSISRTIDENRYEMDTFAAKSTSLKQEYDAAYVAQQTAAREEKAIRDKIGNTEQDISAANDQLRRIVARPVYNGITGVRKVIEEFKHDNRNGQHDDVINGYYGTVIELAEVPDMFRTAVEVIAQNRLFYHVVETDRIATKILRKFNEMQLPGEINFFPMNRVSAPRQRDLSNNSNARPMSDVIDYEVQYDKVFKSITANVIIVRTLDQAARDLRNEGFDVVSVDGDQMSKKGVMTGGFIDKKRSKLELHTQKDRFTKELAELQKSLAEAEKMVRERTQEAEKIRNRMQQHENQIGDFHRKHRELTEAKNAISQQFYMVTSTKEPKKDQLLGIKNHLRELLAQKENFEQEIGSNMSSQLTSDEEQTVKKLRKKVDEMTKQLATVSRRRMDLMHRKNAIENLLTKKLYKTKESLTAKNPKFFLQRVDDISDNERRHKLENANAQLTSLLTRMESTRKQLATAISELQDYETKEKALQINIDNVLEQQRDLEKQQADFQLQYDKITAKEDEVKQKREDSLKKLILSRYSIKTRKNQFSYEISDSEEVGAKREPIEHRKLKISTFCLEYRAKLEKVHSNMRLLGALPTDTFSKWQNVKPRELEKKLLECVNELKKYENVNKKALDQYMTASSQKEELTKRMAEQKKSEDSIEELLKVLENRKYEAIDLTFKQVKKNFEQVFKQLVPHGRGKMQMRAREQRDDEEGINSVELYEGISVLVSFVSDDGDSETREMTQLSGGQKSLVALAIIFSIQKCDPAPFYLFDEIDAALDAQHRKSVADMIQSLSDQAQFVTTTFRPELLATAEKFYGVRFRNKVSHIDSVTREQAYDFVEDDTTHG | not soluble
8 | MKIKTILTPVTCALLISFSAHATNADNYKNVINRTGAPQYMKDYDYDDHQRFNPFFDLGAWHGHLLPDGPNTMGGFPGVALLTEEYINFMASNFDRLTVWQDGKKVNFTLEAYNIPGALVQKLTAKDVQVEMTLRFATPRTSLLETKIISNKPLDLVWDGELLEKLEAKEGKPLSDKTIAGEYPDYQRKISATRDGLKVTFGKVRATWDLLTSGESEYQVHKSLPVQTEINGNRFTSKAHINGSTTLYTTYSHLLTSQEVSKEQMQIRDILARPAFYLTASQQRWEEYLKKGLTNPDATPEQTRVAVKAIETLNGNWRSPGGAVKYNTVTPSVTGRWFSGNQTWPWDTWKQAFAMAHFNPDIAKENIRAVFSWQIQPGDSVRPQDVGFVPDLIAWNLSPERGGDGGNWNERNTKPSLAAWSVMEVYNVTQDKTWVAEMYPKLVAYHDWWLRNRDHNGNGVPEYGATRDKAHNTESGEMLFTVKKGNKEETQSGLNNYARVVEKGQYDSLEIPAQVAASWESGRDDAAVFGFIDKEQLDKYVASGGKRSDWTVKFAENRSQDGTLLGYSLLQESVDQASYMYSDNHYLAEMATILGKPEEAKRYRQLAQQLADYINTCMFDPATQYFYDVRIEDKPLANGCAGKPIVERGKGPEGWSPLFNGAATQANADAVVKVMLDPKEFNTFVPLGTAALTNPAFGADIYWRGRVWVDQFWFGLKGMERYGYRDDALKLADTFFRHAKGLTADGPIQENYNPLTGAQQGAPNFSWSAAHFYMLYNDFFRKQ | not soluble
9 | MKINLEELKFGTELIKRGFAKMQKGGVIMDVTNAEQAAIAEEAGAVAVMALHKVPADIRAAGGVARMADPKKIQEIIDAVTIPVMAKCRIGHIAEARALEALGVDMIDESEVLTPADVFFHIDKRKFVVPFVCGARSLGEAVRRIWEGAAMIRTKGEAGTGNVVEAVKHMRLINRAIFELQKMNEERIYGVAEKYASRYAELASRVREEMGLESVSRNDVVFEEYTLGEIIDGIYEILLEIRELGRLPVVNFAAGGVATPADAALMMQLGADGVFVGSGIFKSSNPPEYAKAIVEAVQHYDEPEVVAEVSKGLGEAMKGLDVFKLSEDERLQTRGL | not soluble
10 | MKIQDYTKQMVDEKSFIDMAYTLLNDKGETMNLYDIIDEFRALGDYEYEEIENRVVQFYTDLNTDGRFLNVGENLWGLRDWYSVDDIEEKIAPTIQKFDILDADDEEDQNLKLLGEDEMDDDDDIPAQTDDQEELNDPEDEQVEEEINHSDIVIEEDEDELDEDEEVFEDEEDFND | not soluble
11 | MKIQMKTPLVELDGDEMTRVLWPLIKDKLLLPFIDLQTEYYDLGIEERDRTNDQITIDAAEAIKKYGVGVKNATITPNQDRVEEYGLKEQWKSPNATVRAMLDGTVFRKPIMVKNIKPSVRSWQKPIVVGRHAYGDFYKNAEIFAEAGGKLEIVVTDKNGKETRQTIMEVDEPAIVQGIHNTVASIGHFARACFEYSLDQKIDCWFATKDTISKQYDQRFKIIFEEIFAQEYKEKFAAAGIEYFYTLIDDVVARMMKTEGGMLWACKNYDGDVMSDMVASAFGSLAMMSSVLVSPYGYFEYEAAHGTVQRHYYQHLKGERTSTNPVALIYAWTGALRKRGELDGTPDLCAFCDSLEAITIECIESGYMTGDLARICEPAAIKVLDSIEFIDELGKRLQQLNK | soluble
12 | MKITHCKLKKKVQKELLRFFVLEVTARSAADILGIHPNSAVLFYRKIRMVISHYLALAANEVFEGSVELDESYFGGRRKGKRGRGAAGKVVVFGILKRNGRVYTVVVDNAKSDTLMPVIKQKIMPDSIVYTDSLSSYDKLDVSGFIHYRINHSKEFADRQNHINGIENFWNQAKRVLRK | not soluble
